“And” between values parts separate entries of the source, which are not always exact repeats. Identical values can stand only once.
Columns and labels:
P69949 [1] = assay: AUC; F137L/E363G enolase incubated at pH 4.5 for one hour and dialysed overnight against SPR binding buffer; soluble fraction; octamer to monomers
P69949 [2] = assay: AUC; each his-tagged enolase alone in SPR binding buffer (no Mg2+, with EDTA, pH 7.4); octamer to monomers
[3] = target: canine plasminogen (canine); assay: co-sedimentation; dPgn made to precipitate with reductant (0.2 M DTT) in the presence of native soluble Str enolase; centrifuged, pellets and supernates on SDS-PAGE; initial dPgn:enolase monomer 1:1 or 1:3
[4] = target: Streptococcus pyogenes enolase F137L/E363G with an N-terminal hexa-histidine tag (Streptococcus pyogenes) (UniProt P69949); assay: AUC; F137L/E363G enolase incubated at pH 4.5 for one hour and dialysed overnight against SPR binding buffer; soluble fraction; octamer to monomers
[5] = target: canine plasminogen (canine); assay: SPR; dPgn amine-coupled at pH 4.5 to CM4 chip (340 RU); titration with F137L/E363G Str enolase 0-500 nM (2-fold series), 25°C
[6] = target: Streptococcus pyogenes enolase F137L/E363G with an N-terminal hexa-histidine tag (Streptococcus pyogenes) (UniProt P69949); assay: AUC; sedimentation velocity of each purified enolase alone, native (data not shown); octamer
[7] = target: Streptococcus pyogenes enolase F137L/E363G with an N-terminal hexa-histidine tag (Streptococcus pyogenes) (UniProt P69949); assay: AUC; each his-tagged enolase alone in SPR binding buffer (no Mg2+, with EDTA, pH 7.4); octamer to monomers
[8] = target: canine plasminogen (canine); assay: ITC; Str enolase brought to pH 9 (precipitated), dialysed back to pH 6.9, 30% activity left; enolase titrated into dPgn, close to 20°C
[9] = target: fluorescently labeled, catalytically inactive derivative of human plasminogen (5'IAF-Pg S741C) (human); assay: fluorescence polarisation; Str enolase first brought to pH 4.5, then diluted into phosphate buffer pH 6.7 (non-native enolase); labelled hPgn 140 nM, Str enolase 0.057 mM, 20°C
[10] = target: Streptococcus pyogenes enolase F137L/E363G with an N-terminal hexa-histidine tag (Streptococcus pyogenes) (UniProt P69949); assay: SPR; N-terminal His6 F137L/E363G Str enolase captured at neutral pH on Ni-NTA chip (~150 RU); single-cycle titration 15-2000 nM
[11] = target: Streptococcus pyogenes enolase F137L/E363G with an N-terminal hexa-histidine tag (Streptococcus pyogenes) (UniProt P69949); assay: co-sedimentation; Str enolase (300 nM) adsorbed to azolectin (phosphatidyl choline) micelles, dPgn 1000 nM, 10 mM potassium phosphate, 100 mM NaCl, 4°C three days, 20 000 rpm 2 h, SDS-PAGE of pellets and supernates
[12] = target: Streptococcus pyogenes enolase F137L/E363G with an N-terminal hexa-histidine tag (Streptococcus pyogenes) (UniProt P69949); assay: ITC; Str enolase brought to pH 4.5 (precipitated), dialysed to pH 6.9, dissolved in 27% urea, dialysed again at pH 6.9, about 30% specific activity left; enolase titrated with dPgn, close to 20°C
[13] = target: wild type Streptococcus pyogenes enolase with a C-terminal deca-histidine tag (Streptococcus pyogenes) (UniProt P69949); assay: AUC; sedimentation velocity of each purified enolase alone, native (data not shown); octamer
[14] = target: wild type Streptococcus pyogenes enolase with a C-terminal deca-histidine tag (Streptococcus pyogenes) (UniProt P69949); assay: AUC; each his-tagged enolase alone in SPR binding buffer (no Mg2+, with EDTA, pH 7.4); octamer to monomers
[15] = target: wild type Streptococcus pyogenes enolase with an N-terminal hexa-histidine tag (Streptococcus pyogenes) (UniProt P69949); assay: AUC; sedimentation velocity of each purified enolase alone, native (data not shown); octamer
[16] = target: wild type Streptococcus pyogenes enolase with an N-terminal hexa-histidine tag (Streptococcus pyogenes) (UniProt P69949); assay: AUC; each his-tagged enolase alone in SPR binding buffer (no Mg2+, with EDTA, pH 7.4); octamer to monomers
[17] = target: wild type Streptococcus pyogenes enolase with no tag (Streptococcus pyogenes) (UniProt P69949); assay: AUC; sedimentation velocity of each purified enolase alone, native (data not shown); octamer

“Streptococcus pyogenes enolase F137L/E363G with an N-terminal hexa-histidine tag” was tested, and the “% monomeric” value (P69949 [1]) was 75% was monomeric and the % monomeric (P69949 [2]) was 36%.

“Streptococcus pyogenes enolase F137L/E363G with an N-terminal hexa-histidine tag (from UniProt P69949 1-435) (enzyme)” showed a % of the precipitated protein that was Str enolase (initial ratio 1:1) [3] of 12%, a % of the precipitated protein that was Str enolase (initial ratio 1:3) [3] of 25% and a dPgn:enolase ratio in the pellet (initial ratio 1:1) (dPgn per enolase) [3] of 6. For the same substance, the dPgn:enolase ratio in the pellet (initial ratio 1:3) (dPgn per enolase) [3] was 3, the % octameric [4] was 19% and the half saturation of all the association phases [5] was 50 nM. It also gave a % octameric [6] of over 90%, a stoichiometry N [6] of 8 and a % octameric [7] of 57%. For the same substance, the stoichiometry N (sites per enolase monomer) [8] was 0.18 and the P (polarization) [9] was 0.43.

canine plasminogen (natural protein) was tested, and the stoichiometry N (dPgn per enolase monomer) [10] was 1, the amount of dPgn relative to Str enolase that co-sedimented (Str enolase per dPgn (as 1:x)) [11] was 1 and 1.2 and the stoichiometry N (dPgn per enolase monomer) [12] was 0.34.

With “wild type Streptococcus pyogenes enolase with a C-terminal deca-histidine tag” the % monomeric (P69949 [2]) was 18%.

“wild type Streptococcus pyogenes enolase with a C-terminal deca-histidine tag (from UniProt P69949 1-435) (enzyme)” showed a % octameric [13] of over 90%, a stoichiometry N [13] of 8 and a % octameric [14] of 68%.

“wild type Streptococcus pyogenes enolase with an N-terminal hexa-histidine tag” showed a % monomeric (P69949 [2]) of 5%.

“wild type Streptococcus pyogenes enolase with an N-terminal hexa-histidine tag (from UniProt P69949 1-435) (enzyme)” gave a % octameric [15] of over 90%, a stoichiometry N [15] of 8 and a % octameric [16] of 88%.

“wild type Streptococcus pyogenes enolase with no tag (from UniProt P69949 1-435) (enzyme)” was tested, and the % octameric [17] was over 90% and the stoichiometry N [17] was 8.
